# Assay: soluble on expression in E. coli; label from the status in PepcDB or PDB records
row,Sequence,soluble on expression in E. coli
1,MGSDKIHHHHHHAASEAEYGKVSKAWTLHADGSQEYRSSMELTLFTHTAMNSTYGESFIVYNPDFQTLKIHSSYTRQKDGTIVKTPDNAFVEVLPRFAADAPAYNQLKEMVVVHTGLELGATIYLDYSIITKPGYYPALDINERLQETSPVKECKVSISVPEGTPLACGLYGSPVKAVEESHDGIKEVHWTLRNIPASSREAFQPKNREASPHLVASTYPSGKAALATLDKRLKESQGYESKTFAQFLTDKSGNEQEKVNIIRDHILNNLSTCPIPMAMTGYTVRDIDTVLRSAYGTPLEIAQLLNVMLNAAGIPSEVLAVYPGHLDTDACGLAAIQTLAVKATVDGKDQYLSASPLTNRGGLDKVVSLSGTSIEIETTPIQIKESRSVAISADQAKDGFAICVLPAISAGIDSWGMSALNSKRSNLFELPSLIREEVTYTVTPAEGMKLQTSTQEQVISKPFGKVTRTITPRGNTIEVVRTIELNKQQFTPAEYSDVRSLIHEWTNPDNRVLLFSL,not soluble
2,IKKEPEKPIDREKTCPLLLRVFTTNNGRHHRMDEFSRGNVPSSELQIYTWMDATLKELTSLVKEVYPEARKKGTHFNFAIVFTDVKRPGYRVKEIGSTMSGRKGTDDSMTLQSQKFQIGDYLDIAITPPNRAPPTSGRMRPY,not soluble
3,MSNTHEVRPGQSIELLKALHILTRDGKMNQDSRRKLKQVYHLYQFIEPLLQNARNARGAVTLVDHGAGKSYLGFILYDLFFKDRRDASHIYGIETRAELVQSATELAARLGFGGMSFLNLSVADSIASEQLPPRVDIVTALHACNTATDDAIRFALAKQAQSIVLVPCCQAEVAAVLRKNKARALADPMAELWRHPLHTREFGSQLTNVLRCLQLEAHGYQLSVTELVGWEHSMKNELIIARHQPGRPRREPARRLREMLERIGLQELSERFQVPAQP,not soluble
4,MLYSSNAILLTVICYELPLSERIRMLLRLEDLFDKIDFFSARDTSFEHHAVLVALFEILDVTSRSDLKSDLLQELDKQRTMLEGLRSNPEVSEKALDHILQDIRAAFRGLLDIPGRIGGHLRDDEWLMSVKQRMSIPGAACEFDLPAYHYWLNLAPEIRREDLKDWITPFTPIRSGINIVLNMLRNSGKNCCYTAVQGLFQQAGSEHQAHLLRLHISSEFPCVPEISANKYALNIRFVPWRSDHKTEVYEEDIPFELTFCSL,not soluble
5,MGGGEVKMMSLLEEMKGIYSKKGGKVKPFEKFEGELKEGYRFEYEKKLCEIDVAMFGLISGDLNPVHFDEDFASKTRFGGRVVHGMLTTSLVSAAVARLPGTVVLLEQSFRYTSPVRIGDVVRVEGVVSGVEKNRYTIDVKCYTGDKVVAEGVVKVLIW,soluble
6,MKNDVISPEFDENGRPLRRIRSFVRRQGRLTKGQEHALENYWPVMGVEFSEDMLDFPALFGREAPVTLEIGFGMGASLVAMAKDRPEQDFLGIEVHSPGVGACLASAHEEGLSNLRVMCHDAVEVLHKMIPDNSLRMVQLFFPDPWHKARHNKRRIVQVPFAELVKSKLQLGGVFHMATDWEPYAEHMLEVMSSIDGYKNLSESNDYVPRPASRPVTKFEQRGHRLGHGVWDLMFERVK,soluble
7,MGSDKIHHHHHHMSTFLESLRDILSAGESIAMATIANHSGSTPRGDGAQMVIRPDGSILGTIGGGLVEARCIEAGRDLLQRPPGSALFCAFALDNTTAAEAAMVCGGHLTVIIEHAGACHDNVNGCHTGEQTGCSAGHGKGLADILLHACDRVADGLSASFGVEYVWDSPSGQDGANALDKADISGRATTRQTFRPMRAAVHTTGEDSDGQRLSGASTGLALSESGCRLDVMLVPPPRLVIFGAGHVAVPTAHFGHAVGFSVTVIDDRPDFATPERFPDAHLRIPPSFAEAFDGLHVTPDTYLVIMTRGHLHDGEILEQALKTPARYIGMIGSRRKRDALYAELQEQGLDDATLARCHCPIGLDIQAQTPEEIGISIMAELVMHRASA,not soluble
8,MSLASKSIRILSVEDHPVVREGLVSIIGSQPDMVLVAQATNGSDAIAQFRTHHPDITLMDLRLPGISGTDALISIRGEFPRARVIILTTSDSHTEIDRALRAGAAAYILKSMPMNEMLAVIRSVHAGARHIPQEVASRLAENIGEESLTSRELEVLHLIRDGHRNKQIADELSISETTVNFHIKNIVGKMGANDRTHAVTIAVRRGLLQEGHHHHHH,soluble
9,MTKAFDAFERAIRDAEDLLARHDAEKTVPNGHNGEVLKRAGLVMALAAWETYVKDRLQSEIDTWLQAVEGSPLGKFVRRRLEEDLKRFFNPNDERTRRIFIDYFDVDITKDWVWENYDSSTSKKVLDSLVAKRGDAAHKANTALHASAEPHKVKRDELEKGIRFLKGLVAATEKAKITK,not soluble
10,MKKPNGTNGASSSLEPPPSTFQPLCHPLVEEVSKEVDGYFLQHWNFPNEKARKKFVAAGFSRVTCLYFPKALDDRIHFACRLLTVLFLIDDLLEYMSFEEGSAYNEKLIPISRGDVLPDRSIPVEYIIYDLWESMRAHDREMADEILEPVFLFMRAQTDRTRARPMGLGGYLEYRERDVGKELLAALMRFSMGLKLSPSELQRVREIDANCSKHLSVVNDIYSYEKELYTSKTAHSEGGILCTSVQILAQEADVTAEAAKRVLFVMCREWELRHQLLVARLSAEGLETPGLAAYVEGLEYQMSGNELWSQTTLRYSVVVD,soluble
11,MQEVPPDFEDVHIAEARVDVPSTWRDQIVNTNAVATETHPLKCAEVETQTGSKDNQGTQTDDAGGGRPPSPSKVQASGVADFMAKVEGMVAGELVKATEEHEVLEPFTRAADDEQEPATCIHYLSPFQQDAAANQDLNAT,soluble
12,MAENFQLPYLSLQNEKVDMVFDLFNKTIRNGEKVTFAFSGGKDSTTLAILFYEWLKIRHDIECTITLLHNDTSSEIDPMENWARNFMTSYKTEIEDITEGRVKINIDIRTPKVIDTFYWRMLIRGYPAPSFNFRWCVHLLKEKPANLDSIEETMFTGLREAESSERRILMRKKYGNSCSASPGGCMAYYYSTEGKGNKVAPMRDWTDGDVWSFLTLYRNTGGINISPIFMLYPNPKVRYGCWHCTLASVQWGLQSLGGGLEYFEAVRILYRKFSDLPYLRIKKNTGYSKLGPLNAAGRALMLKSIALAEDLSNVKLYGLDINLLEGKSIRDILFNLDPKEATALIKKYDPNIPRFRYIPIDKIRNIQKYKELALRALIDVKRNCANDKAYILLDTKLENPLITLLNRIEDLLS,not soluble
13,MTDLPLTGRARPDRRPHTLAEWRAEGGYEAVDRARSMAPAEIIDMVEAAHLNGRGGAGFPAGRKWRFMPERGTSPGEGPSYLIVNGDEMEPGAFKDRFLLEALPHQVIEGAIITARATHADEAIVLIRDEYRPGIAAVERAIHEARDAGLLGDLAIRVHPSAGRYIVGEETALITALEGHRAVPRKRPPFPAQSGLWGRPTTVNNVETISLVPHILSLGPQRFRALSRTEEGGTKLYGVSGRVKRPGLFEAPMGTTARELIERAGGVSGDGQLRAFQPGGGASGFFGPDRLDLPLDFGHVAKAGSMFGTGMLIVLDGTACPVGFLARHMRFYARESCGWCTPCREGLPLVAKILDRFAAGQGRRADLELLQMTAAEAAPRGRSFCDLMGGAMAPLASGLSMFAAEFEARLAEGERALEHHHHHH,not soluble
14,GSNAFGRFIDKIYLNSVGWRGIRQRKTHLQMLIKQAVAHLHAKGLAVRVVDIAAGHGRYVLDALANEPAISEILLRDYSEVNVAQGQEMIAQRGMSGRVRFEQGDAFNPEELSALTPRPTLAIVSGLYELFPENEQVKNSLAGLANAIDPGGILIYTGQPWHPQLELIAGVLTSHKDGKPWVMRVRSQGEMDSLVHDAGFDKCTQRIDVWGIFTVSMAVRRDN,not soluble
15,MKNIYVETYGCALNRADTYVMMTLLKSEGYNFVENPENADIIILNTCAVRLETEERMKQRIKELNTLSKKLVVAGCMSSAEPATVLSIAPNASLIGPQSVERIVDIVKSEERKIVIEGDRALITPRTFDGKIAIIPVADGCAGNCSFCITKLARRKLRSYPLREIVNAARDAIQSGAREIELTGQDTAAYGLDLGGSISLVDVVNKVADIDGDFMIRIGMMTPEQAMRIMDDLIEAIRNPKVYKFIHLPVQSGDDRVLKLMNRKYTVDEYKELISEIRHKIPFVNITTDIIVGHPGEDEEAFNNTLLLMKELRFERIHLAMYSIRPNTRSASMPQVPDSIKKKRIQIANKLYEDLALSIHLDYVGSTSRVITTELGRKGSVIGRLMNYIPVVIRSENVELGKWYDVKITEASFYDLRGILALEHHHHHH,soluble
16,MSLNREFDVTAPNQVWCGDITYIWAQGKWHYLAVVMDLYARRVLGWAFSKKSDTDLVIKALDMAYEQRGKPQGLLFHSDQGAQYGSRQFRKRLWRYRVRQSMSRRGNCYDNSPMARVFRSLKTEWIPAVGYMTAQEAQGDISHYLMHRYNRVRPHQFNDGLAPAQYEKTLTSEGHHHHHH,not soluble
17,MGSDKIHHHHHHMKALVEDDLFSKIGLDDVNSGVYDGEWVKPSGKMLTVKSPIDGSEVAKISLATRADYDRLVSRAIEEFKKWRMIPAPKRGLIIREIGDELRKEKKNLGKIVTIEAGKTPSEGEGEIQEMIDISDLALGLSRQLYGLTIASERPYHRMYEQWVPLGPVAVITSFNFPASVWSWNAFIAAVDGDVVIWKPSSKAALTAVAVMKVIERVLKRNNAPNIFFLMVSSGSEGGDWITNDPRIPLVSFTGSVPVGKKISENVAKRLGKSILELGGNNGAIVSDKADIDLALRGVVFGALATAGQRCTTTRRVIVQEKIYDQFLEKLKNAYSTIKVGDPREKGVLVGPLIDEDAVKDYEHAIDLAIKQGGKLIFGGKRITIKGLEGGHYVMPTIIEAKPDMPIVKEETFASILYVMKYRTIEEAIEIHNSVPQGLSSSIFTTDLREEEAFLSPYGSDCGLANVNTSTAGAEIGGAFGGEKDTGGGRESGSDAWKYYMRRQTVTKNWGQTLPLAQDVVFEF,not soluble
18,QTMGGDDVKVVQYNQEKLVQTRMSVADNGWIYVMTHSGYDTGNSNVKIFRSKDQGATYQKLRDWDPSDDYQFQDFDIVVTGKNESDIKIWSVELMNKPGGYKSRVAVFSRDANAQNAKLVYKEDFSNVQLYDVDIASNYRSPSSLNNGGNPFALAFAYTGFNNTHKISFVDYVFSLNGGQNFNKNLLFSQDGEKKIDKVDLSLGSTSESMGHNAWPLMGVVFEMNKQGGKSDIGFLSNFVDNDPEFQWSGPIKVSESDMSFSPKIQMLLDEDNNTINGESCHNFMITYSDYDSEYSDWDIRYVYPKKSFKYEKGKTPTMDDLVEAFLTASYQSETNSGLGYDKNANHYLITYAKKEENGTNTLKYRWANYDKIHNKDLWSDTFTYTSSANALYTPQVDINPTKGLVCWSWVEYLPGKRIVWSDTQWTHANGVEDIVMQEGSMKLYPNPAQE,not soluble
19,MGSDKIHHHHHHMNIRIGCSGWYYPHWAGKFYPSDLNKSEWFRYYAQKFDTVEINSTFYSFPNAARVRSWVKGSPENFVFSVKVNRTITHVKRLKDCDEEIGLFYEIIGSLGKMLGCVLFQFPPSFKYSHDNLIMIEKALDQRFCNVVEFRNISWFSEDARCDLEKSDLHVVAVSSERIPLWIKEDSVVYVRLHGNVNGYATDYNEEYLTDLAQRIIDVKPQSLYVYFNNDYSGYAPKNAIMLKSIINNLIL,not soluble
20,MTSIHSPVTRKEDTELKRPDLRGKFVCSSCSQNFQHSASLNRHRQLMHSNEHTCMMCERALNQKETIREHMRNEHNLAQVFTCGCCNWTFASKRQLTEHTKCIQGTGAPGDTIPIAKSINAPGSLIQSTIQGTPPVVKTGRKRPMGGSLSPSSSVSTSISSRDASGSPPPTEEEAERKVLFDNAVDTILQSKFFTYQQITEVDTWVKIIESANTLADTLQRIKKSQKVKAEGPAVESKMIPEKHVKQEIE,not soluble
21,MGSDKIHHHHHHMIIDEISLFILDMDGTLTLEPSSWDYVHRRLGINNHSVTRLYRNRYINYYCFFQSDIKAWLHKYPNLKKEKVVEFLREVPIRHGADELINVLRKNGIRTAVISGGISWLFDIISERSKIDYNFSNEIFTDEYGYIVPEGKVRVIPEEKDLVVRKIQEELGIGKDQTASVGDEMENDRIHRYSKYRFIISKKARDNLIPIPSGDLEDLLRILE,not soluble

# Source: the DeepSol protein solubility set
